Molecular target: HLA-A*24 (human)
Assay: UV-exchange ELISA (anti-b2m); yield 50%-75%

Binder	peptide exchange yield
SYLPAIWLL	50 to 75%
VYKDSIYYI	50 to 75%
VYLPKIPSW	50 to 75%
KYVGQLAVL	50 to 75%
VYAIFRILL	50 to 75%
YYFFVQEKI	50 to 75%
SYVKVLHHL	50 to 75%
VYGEPRELL	50 to 75%
SYLELANTL	50 to 75%
VHFEDTGKTLLF	50 to 75%
LYPQLFVVL	50 to 75%
SFTKTSPNF	50 to 75%
VYTKALSSL	50 to 75%
IYGFFNENF	50 to 75%
KYLESSATF	50 to 75%
VYQKIILKF	50 to 75%
VFGKSAYLF	50 to 75%
IFIDNSTQPLHF	50 to 75%
AYAQLGYLL	50 to 75%
RYILENHDF	50 to 75%
KYTDWTEFL	50 to 75%
QYPYLQAFF	50 to 75%
YYSQESKVLYL	50 to 75%
IYGEKLQFIF	50 to 75%
FYTFPFQQL	50 to 75%

Binder	peptide exchange yield
VWLPASVLF	50 to 75%
NYSPGLVSLIL	50 to 75%
NYLVDPVTI	50 to 75%
EYQEIFQQL	50 to 75%
DYLKDPVTI	50 to 75%
VYVGDALLHAI	50 to 75%
IYNPNLLTASKF	50 to 75%
YYLGSGRETF	50 to 75%
RFPVQGTVTF	50 to 75%
SYLVIHERI	50 to 75%
KYQYVLNEF	50 to 75%
TYPSQLPSL	50 to 75%
LYLPVHYGF	50 to 75%
LYSVIKEDF	50 to 75%
EYNEVANLF	50 to 75%
VYPAEQPQI	50 to 75%
GYAFTLPLF	50 to 75%
TFDGHGVFF	50 to 75%
IYAPTLLVF	50 to 75%
SYTSVLSRL	50 to 75%
RYFKGDYSI	50 to 75%
FYIPHVPVSF	50 to 75%
VYFEGSDFKF	50 to 75%
VFDTSIAQLF	50 to 75%
TYSNSAFQYF	50 to 75%

Binder	peptide exchange yield
SYLTQHQRI	50 to 75%
NYAFLHRTL	50 to 75%
NYLGGTSTI	50 to 75%
EYNSDLHQF	50 to 75%
EYNSDLHQFF	50 to 75%
VYAEVNSL	50 to 75%
IYLEHTESI	50 to 75%
QYSIISNVF	50 to 75%
KYGNFIDKL	50 to 75%
IFHEVPLKF	50 to 75%
QYGGDLTNTF	50 to 75%
TYGKIDLGF	50 to 75%
VYNEQIRDLL	50 to 75%
IYVTGGHLF	50 to 75%
YYSEVPVKL	50 to 75%
VFSPDGHLF	50 to 75%
TYADIGGLDNQI	50 to 75%
KYLNENQLSQL	50 to 75%
QYLELAHSL	50 to 75%
KYQNVKHNL	50 to 75%
VYTHEVVTL	50 to 75%
RFIGIPNQF	50 to 75%
VYVIEPHSMEF	50 to 75%
GYISNGELF	50 to 75%
KYTDYILKI	50 to 75%
